Where a chain is given by its changes, count along the chain named. Numbers in names are those of the source.

Substrate in data set [1]: O=C(O)C(=O)CC1(C(=O)O)C=CC(O)C=C1
The data set can be described thus: ADH and PDH assay: steady-state kinetics and Tyr inhibition, MtncADH wild type. The settings on record: other: 0.5 mM NADP^+, pH 7.6, 37° C. Type of data set: biochemical, Medicago truncatula. As for the experimental part:
(§1) Kinetic parameters of purified recombinant proteins were determined from assays conducted at varying arogenate (19.5 μM-5 mM) and prephenate concentration (23.4 μM-6 mM). Standard assay conditions were 25 mM HEPES pH 7.6, 50 mM KCl and 10% (v/v) ethylene glycol, and 0.5 mM NADP^+ with varied substrate, concentrations. Reactions were initiated by addition of enzyme and incubated at 37° C. monitored every 10-15 seconds at […] using a microplate reader (Tecan Genios). Kinetic parameters were determined by fitting initial velocity data to the Michaelis-Menten equation using the Origin software (OriginLab).
(§2) Arogenate was prepared by enzymatic conversion of prephenate (Sigma-Aldrich) as previously reported^56. For Tyr inhibition assays, Tyr was dissolved in a slightly basic solution (0.025 N NaOH) due to solubility issues, thus the concentration of lysis buffer was increased to 500 mM HEPES final concentration to buffer against the changes by addition of Tyr in the reaction. Reactions containing varying amounts of Tyr (10 μM-8 mM) with 0.5 mM NADP^+ and either 1 mM arogenate or 0.8 mM prephenate were monitored as above.

Substrate in data set [2]: N[C@@H](CC1(C(=O)O)C=CC(O)C=C1)C(=O)O
The description is as above. Type of data set: biochemical, Medicago truncatula. To be noted: other: 0.5 mM NADP^+, pH 7.6, 37° C. As for the experimental part:
as §1, §2

The nature of data set [3]: PDH assay: steady-state kinetics of purified recombinant plant enzymes with prephenate. Type of data set: biochemical. To be noted: prephenate versus arogenate, NADP+ cofactor.
Text: As used herein, a polypeptide may “have greater arogenate dehydrogenase activity than prephenate dehydrogenase activity” or “have greater prephenate dehydrogenase activity than arogenate dehydrogenase activity” when the steady-state kinetic parameters (kcat/Km (mM^−1s^−1)) for arogenate dehydrogenase activity are greater than the steady-state parameters (kcat/Km (mM^−1s^−1)) for prephenate dehydrogenase activity or when the steady-state kinetic parameters (kcat/Km (mM^−1s^−1)) for prephenate dehydrogenase activity are greater than the steady-state parameters (kcat/Km (mM^−1s^−1)) for arogenate dehydrogenase activity. Steady-state kinetic parameters may be measured using techniques similar to those described by the inventors in the Examples. Briefly, kinetic parameters of purified polypeptides can be determined from assays conducted at varying arogenate and prephenate concentrations. Standard assay conditions include 25 mM HEPES pH 7.6, 50 mM KCl and 10% (v/v) ethylene glycol, and 0.5 mM NADP^+ with varied substrate, concentrations. Reactions can be initiated by the addition of the polypeptide and incubated at 37° C. monitored every 10-15 seconds at A340nm using a microplate reader. Kinetic parameters may be determined by fitting initial velocity data to the Michaelis-Menten equation using the Origin software.
as §1

Substrate in data set [4]: N[C@@H](CC1(C(=O)O)C=CC(O)C=C1)C(=O)O
Kind of data set: ADH and PDH assay: steady-state kinetics and Tyr inhibition, SolyncADH wild type. Type of data set: biochemical, Solanum lycopersicum (tomato). The settings on record: other: 0.5 mM NADP^+, pH 7.6, 37° C. On the procedure: as §1, §2

Substrate in data set [5]: N[C@@H](CC1(C(=O)O)C=CC(O)C=C1)C(=O)O
The data set can be described thus: ADH and PDH assay: steady-state kinetics and Tyr inhibition, GmncADH wild type. Type of data set: biochemical, Glycine max (soybean). To be noted: other: 0.5 mM NADP^+, pH 7.6, 37° C. On the procedure: as §1, §2

A short description of data set [6]: PDH assay of microbial TyrA enzymes (Example 2). Type of data set: biochemical. On the procedure:
ADH and PDH assays were performed using purified recombinant enzymes for SsTyrA and MhTyrA Wt and Q227E mutant, while the E. coli cell lysate was used for OiTyrA as expression and purification of this enzyme was unsuccessful. Reactions contained 0.8 mM substrate (arogenate or prephenate) and 0.8 mM cofactor (NADP+ or NAD+) together with reaction buffer (25 mM HEPES pH 7.6, 50 mM KCl, 10% (v/v) ethylene glycol). For OiTyrA assays containing cell lysates, reactions were incubated for 45 minutes and analyzed using HPLC as previously reported (Schenck et al., 2015). For pure enzymes, reactions were monitored every 10-15 seconds for reduced cofactor at A340 nm using a microplate reader (Tecan Genios). Kinetic parameters of purified recombinant enzymes were determined from assays containing varying concentrations of arogenate (39.1 μM-5 mM) or prephenate (39.1 μM-5 mM) substrate and monitored 10-15 seconds for reduced cofactor at A340 nm using a microplate reader (Tecan Genios). Kinetic parameters were determined by fitting initial velocity data to the Michaelis-Menten equation using Origin software (OriginLab) from technical replicate assays (n=3). Arogenate substrate was prepared by enzymatic conversion of prephenate (Sigma-Aldrich). All enzyme assays were conducted at a reaction time and protein concentration that were in the linear range and proportional to reaction velocity.

Substrate in data set [7]: O=C(O)C(=O)CC1(C(=O)O)C=CC(O)C=C1
The data set can be described thus: ADH and PDH assay: steady-state kinetics and Tyr inhibition, GmPDH1 wild type. Format: biochemical, Glycine max (soybean). To be noted: other: 0.5 mM NADP^+, pH 7.6, 37° C. On the procedure: as §1
(§3) Arogenate was prepared by enzymatic conversion of prephenate (Sigma-Aldrich) as previously reported^56. For Tyr inhibition assays, Tyr was dissolved in a slightly basic solution (0.025 N NaOH) due to solubility issues, thus the concentration of lysis buffer was increased to 500 mM HEPES final concentration to buffer against the changes by addition of Tyr in the reaction. […]

Substrate in data set [8]: N[C@@H](CC1(C(=O)O)C=CC(O)C=C1)C(=O)O
The description is as above. Type of data set: biochemical, Glycine max (soybean). To be noted: other: 0.5 mM NADP^+, pH 7.6, 37° C. As for the experimental part: as §1, §3

B1: MtncADH (Mt5g083530), Medicago truncatula noncanonical arogenate dehydrogenase, wild type (Medicago truncatula) (protein)
chain: MSNSPSLKIGIVGFGSFGQFLAKTMIKQGHTLTATSRTDYSHTCLQLGIQFFRDVGTFIEANNDVILICTSIMSFTKVLSSMPLACLKKPTTLFVDVLSVKEHPREVLLRVLPEESDILCTHPMFGPESGKNGWKDLNFMYDKVRIHDEATCSNFLHIFASEGCKMLQMSCEEHDKIAAKSQFITHTIGRTLAEMDIESTPIDTKGFQTLTQLKNTTMRDSFDLYSGLFVHNRFAKQELENLQRALDRVKEMLVQRMREELGPEKD
notes: wild type
Broadly, the Km is the substrate concentration at which the rate is half of its maximum. The term kcat denotes the number of substrate molecules converted per active site and unit of time at saturation. As a reminder, the kcat/Km is the turnover number divided by the Michaelis constant. B1: in data set [1], the Km worked out at 6690 ± 270 µM, the kcat was 0.3 ± 0.1 s⁻¹ and the specificity constant (kcat/Km) worked out at 45 M⁻¹ s⁻¹. In data set [2], the Km was determined as 140 ± 20 µM, the kcat worked out at 39 ± 7.6 s⁻¹ and the kcat/Km came to 279000 M⁻¹ s⁻¹.

B2: MtPDH C220D: site-directed mutant of M. truncatula PDH, Cys220 to Asp (protein)
chain: MSSSSKSLKIGIVGFGTFGQFLANTMIKQGHTLTATSRTDYSQLCDQMGIHFFRDITAFLDADMDVILLCTSISSLSEVVGSMPLACLKRPTLFVDVLSVKEHPKNLLLKVLPEESDILCTHPMFGPVSGKNGWQNLTFMFDKVRIKDEVTCSKFLQIFASEGCKMVEMSCEEHDKAAAKSQFITHTIGRTLAEMDIKSTPIDTKGFQTLVELKKPVMGDSFDLYSGLFVYNRFARQELENLEHALHKVKEMLVQRIDEGQNPERTES
modifications: Synthetic: MtPDH C220D
notes: site-directed mutant of M. truncatula PDH, Cys220 to Asp
Consider B2, for which, in data set [3], the “substrate specificity: PDH versus ADH activity (in words)” value was “reduced PDH activity and enhanced ADH activity”.

B3: SolyncADH (Slycopersicum06g050630), tomato noncanonical arogenate dehydrogenase, wild type (Solanum lycopersicum) (protein)
chain: MSSSSSCQPKTLRIGIIGFGPFAQFLAKTMMKQGHCIHVTSRSDYSELCTDLGILFFRDMGAFLESDNEVIMISTSILSLSQVVESIPFNCLKRPTLFVDVLSVKEHPKDVLLRMMPRECDLLCTHPMFGPESGKDGWEDLTFMYDMVRIRDQPLCSSFLHIFSSEGCKMLEMTCEKHDRLAAQSQFLTHTIGRILSEMEVEPTPIDTKGFQKLVQVKESSVKDSFDLFSGLFIHNRFARQQMKNLEVALEKTKEKLQERSKELQDPIISKF
notes: wild type
Consider B3, for which, in data set [4], the Km is 450 ± 50 µM, the kcat was determined as 15.9 ± 2.1 s⁻¹ and the kcat/Km worked out at 35300 M⁻¹ s⁻¹.

B4: SolyncADH: noncanonical arogenate dehydrogenase from tomato, wild-type (protein, listed as Solanum lycopersicum)
chain: B3 chain
modifications: misc_feature (1)..(272): SolyncADH WT
notes: noncanonical arogenate dehydrogenase from tomato, wild-type
Turning to B4, the “substrate specificity: PDH versus ADH activity (in words)” value in data set [3] is given as “exhibited ADH but not PDH activity”.

B5: GmncADH (Gm14g05990), soybean (Glycine max) noncanonical arogenate dehydrogenase, wild type (Glycine max) (protein)
chain: MSTWSLKIGVVGFGSFGQFLAKTMIKQGHTLRATSRTDYSLLCLPMGIQFFRDVAAFLEADNDVILVCTSILSLSEVLSSMPLTCLKRSTLFVDVLSVKEHPRNLLIKVLPEESDILCTHPMFGPDSGKDGWQDLTFVYDKVRIRDEAICSSFLHIFASEGCRMLQMSCEEHDKIAAKSQFITHTIGRTLAEMDIKSTPIDTKGFHSLVQLKDTTIRDSFDLYSGLFLHNRFAVQELENLEHALHKVKEMLVQRKSEELGLEKTEC
notes: wild type
Turning to B5, in data set [5], the Km is 410 ± 30 µM, the catalytic constant (kcat) worked out at 27.7 ± 1.1 s⁻¹ and the kcat/Km was 67600 M⁻¹ s⁻¹.

B6: Wild-type: wild-type archaeon TyrA from Methanosaeta harundinacea, recombinant (protein)
chain: MTTMANSGTKNRMLIVGGTGGTGSWFAKYFKEHGFLVSIWGPSGKVEVAERLGVKFARDLMAEVAKSDVVLLSVPIKETAKVVEEVAPRMRPGSLLMDVTSLKAEPMKAMLRWAPDGVEVLGTHPMFGPTIPTIRGQTVILVPAAGRCDEWLLPMEEIFQEDGARVEVLGAEEHDRIMAVVQALTHFAYISIGSTLRSLDFDIAHSRRLMSPVYEIMIDFVGRILAQSPELYSSIQENPEAKRVREAYIEECQRLSKLADTGNSEGFMEAMRSAADHFDEREVALARSDRLISLWIDHREGKRRGLEPRW
modifications: M. harundinacea; misc_feature (1)..(310): M. harundinacea TyrA MhTyrA
notes: wild-type archaeon TyrA from Methanosaeta harundinacea, recombinant
B6: in data set [6] (0.8 mM arogenate or prephenate, 0.8 mM cofactor), the “ADH and PDH activity (in words)” value is “strong PDH and very weak ADH activity”. In addition, the “cofactor preference (in words)” value in data set [6] (PDH activity, NADP+ versus NAD+, 0.8 mM) is listed as “strongly preferred NADP+ over NAD+ cofactor”.

B7: GmPDH1 (Gm18g02650), soybean (Glycine max) prephenate dehydrogenase, wild type (Glycine max) (protein)
chain: MSTSSSSQSLKIGIVGFGNFGQFLAKTMIKQGHTLTATSRSDYSELCLQMGIHFFRDVSAFLTADIDVIVLCTSILSLSEVVGSMPLTSLKRPTLFVDVLSVKEHPRELLLRELPEDSDILCTHPMFGPQTAKNGWTDHTFMYDKVRIRDEVICSNFIQIFATEGCKMVQMSCEEHDRAAAKSQFITHTIGRTLGEMDIQSTPIDTKGFETLVKLKETMMRNSFDLYSGLFVYNRFARQELENLEHALHKVKETLMIQRTNGEQGHKRTES
notes: homodimer
On to B7, for which, in data set [7], the Km was determined as 90 ± 10 µM, the kcat was determined as 30.4 ± 0.7 s⁻¹ and the kcat/Km is 338000 M⁻¹ s⁻¹. In addition, in data set [8], the Km was 2590 ± 90 µM, the kcat came out at 6.3 ± 0.7 s⁻¹ and the kcat/Km was found to be 2430 M⁻¹ s⁻¹.

B8: GmPDH1 N222D: site-directed mutant of soybean PDH, Asn222 to Asp (protein)
chain: B7 chain with N222D
modifications: Synthetic: GmPDH1 N222D
notes: site-directed mutant of soybean PDH, Asn222 to Asp
As for B8, the “substrate specificity: PDH versus ADH activity (in words)” value in data set [3] is listed as “gained ADH activity”.

Source of the values: patent US12134788B2, “Engineered prephenate dehydrogenases and arogenate dehydrogenases and methods of using the same” (Wisconsin Alumni Research Foundation, priority 2017, dated 2024).
